Laboratory results reported in patent US20230312750A1 (AD PHARMACEUTICALS, published 2023).

Legend:
Assay in all cases: cell-based or functional assay
[1] = molecular target: T1, PCSK9-his (wild-type PCSK9, prepared by Akeso Biopharma) (human, UniProt Q8NBP7 31-692, limits assumed)
[2] = molecular target: T1, PCSK9-his (wild-type PCSK9, prepared by …); remark: listed apart in the source
[3] = molecular target: PCSK9(D374Y)-his (Acrobio, cat. no. PCY-H5225) (UniProt Q8NBP7 31-692)

B1: MAB1 (antibody, V domains shown)
VH: EVQLVESGGGLVQPGRSLRLSCAASGFTFSSYSMNWVRQAPGKGLEWVSGISSSSSYISYADSVQGRFTISRDNGKNSLYLQMNSLRAEDTALYFCAREYDFWSAYYDAFDVWGQGTMVTVSS
VL: QSELTQPRSVSGSPGQSVTISCTGTSRNIGGGNDVHWYQQHPGKAPKLLISGVIERSSGVPDRFSGSKSGNTASLTISGLQAEDEADYYCQSFDGSLSGSVFGTGTDVTVL
[1]
  EC50 for MAB1 relieving the inhibition of LDL endocytosis in HepG2 cells by PCSK9: 13 mg/L
[2]
  EC50 of MAB1 for inhibition of LDLR endocytosis by wild-type PCSK9 (BODIPY-LDL uptake, HepG2 cells): 32.9 mg/L

B2: evolocumab (purchased from AMGEN) (antibody, V domains shown)
VH: QVQLVQSGAEVKKPGASVKVSCKASGYTLTSYGISWVRQAPGQGLEWMGWVSFYNGNTNYAQKLQGRGTMTTDPSTSTAYMELRSLRSDDTAVYYCARGYGMDVWGQGTTVTVSS
VL: QSALTQPASVSGSPGQSITISCTGTSSDVGGYNSVSWYQQHPGKAPKLMIYEVSNRPSGVSNRFSGSKSGNTASLTISGLQAEDEADYYCNSYTSTSMVFGGGTKLTVL
[3]
  EC50 for inhibition of LDLR endocytosis by functionally enhanced mutant PCSK9 (PCSK9-D374Y) (BODIPY-LDL uptake, HepG2 cells): 1.26 mg/L
[2]
  EC50 for inhibition of LDLR endocytosis by wild-type PCSK9 (BODIPY-LDL uptake, HepG2 cells): 30.8 mg/L
